T1: FUN DNA-binding domain (bZIP) (Lotus japonicus)
T1 chain: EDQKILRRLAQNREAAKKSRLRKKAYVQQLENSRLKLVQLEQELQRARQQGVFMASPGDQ

B1: FUN-GFP (FUN fused to green fluorescent protein) (other)
chain: MQGFKTAQGNSHLYCHPSSFLLRGDDTSRNHTRFSDLGELQHSSNIFQQDDAVDLSSSNLPCSMYSVKSCNVVGGGSNMQYGTLNTNLGSAEIVSTGAGCLETGQQLMYHKEISMATMPMGNGHVENWADSSGMADNSQQTDDTSTDVDTDDKIQSNRDKRGTHMVVHSRDQTKSKPEDQKILRRLAQNREAAKKSRLRKKAYVQQLENSRLKLVQLEQELQRARQQGVFMASPGDQSHLAVGGANGASAFDMEYAHWVDEHQRLLTDLRSALNSQMGDNELHLLVDGVMAHYDELFRLKSLGAKADVFHMHSGLWKTPAERCFMWLGGFRSTELLKIVKNHLEPLTEPQLMGIDNLLRCAQQGEDALTQGMEALQQALVDTLSSTSLGPAGAGNVADYMGQMAIAMGKLATLESFLHSADLVKQQTLQQLQRILTTRQMARALLVRNDYISRLRALSSLWLARPRESSVMSSLPPSNIE
notes: Expressed inside plant cells, where it is nuclear (N. benthamiana leaves, Lotus hairy roots), not on the cell surface; also called pro35S:FUN-GFP; proUbi:FUN-GFP; not shown: eGFP fused to the FUN CDS
B2: NRT3.1 P2 (dsDNA)
DNA 1: GGTTTTTATTTTTGACCTCAGAGGGGATCG
DNA 2: CGATCCCCTCTGAGGTCAAAAATAAAAACC
B3: NAC094 P1 (dsDNA)
DNA 1: AGGAGAGGTTTGTGAGCATCAGCAAAGTGT
DNA 2: ACACTTTGCTGATGCTCACAAACCTCTCCT
B4: NRT3.1 P3 (dsDNA)
DNA 1: AGACCTATTTTCTGACTCAATGTAGAGGGT
DNA 2: ACCCTCTACATTGAGTCAGAAAATAGGTCT
B5: HO1 P2 (dsDNA)
DNA 1: TCGAGCCTGCCTTGAGCTTGTCTTCTCCAT
DNA 2: ATGGAGAAGACAAGCTCAAGGCAGGCTCGA
B6: AS1 P1 (dsDNA)
DNA 1: CATGTGGGCTTTTGACGAAGGTTCAAGTAG
DNA 2: CTACTTGAACCTTCGTCAAAAGCCCACATG
B7: HO1 P1 (dsDNA)
DNA 1: TGTAATAACTTGTGAGCGAAGCAGGGATCC
DNA 2: GGATCCCTGCTTCGCTCACAAGTTATTACA
B8: NRT3.1 P1 (dsDNA)
DNA 1: CGTTCATTAATATGACATCAGAATTTCTCT
DNA 2: AGAGAAATTCTGATGTCATATTAATGAACG
B9: NRT2.1 P4 (dsDNA)
DNA 1: AGATTTAAGTTGACGTATTAATGACAATGA
DNA 2: TCATTGTCATTAATACGTCAACTTAAATCT
B10: NRT2.1 P1 (dsDNA)
DNA 1: ACAAGTAGCTTATGACGTACGACATATAGT
DNA 2: ACTATATGTCGTACGTCATAAGCTACTTGT

Experiments:
[1] = target: the molecule itself; test: confocal imaging of FUN-GFP in N. benthamiana leaves infiltrated with 500 µM ZnCl2
[2] = target: T1, FUN DNA-binding domain (bZIP); test: EMSA; same buffer, 37 C; conditions: chain copies: 2; label: 5' 6-FAM
Protocol: (§1) The purified FUN DNA binding domain (residues 178-237) was incubated with the probes at 37° C. for 60 min in EMSA buffer (25 mM Tris-HCl pH8.0, 80 mM NaCl, 35 mM KCl, 5 mM MgCl₂). After incubation, the reaction mixture was electrophoresed in 6% native polyacrylamide gel and then labelled DNA was detected with the Typhoon scanner (Fujifilm). Probes without 6-FAM-label served as competitors, while probes with mutation in the core binding sites (TGACG) served as mutants.
(§2) The promoter region of Nrt2.1 had four putative FBSs (P1-P4), the promoter region of Ho1 had two FBSs (P1 and P2), the promoter region of NAC094 had one FBS (P1), the promoter region of Nrt3.1 had three FBSs (P1, P2, and P3), and the promoter region of AS1 had one FBS (P1), all of which are illustrated in FIG. 2C. EMSA was conducted to test whether the FUN DNA-binding domain bound probes representing the FBSs.

[3] = target: T1, FUN DNA-binding domain (bZIP); test: EMSA; same buffer, 37 C; printed reverse strand identical to forward; conditions: chain copies: 2; label: 5' 6-FAM
Protocol: as §1, §2

[4] = target: T1, FUN DNA-binding domain (bZIP); test: EMSA; 25 mM Tris pH 8.0, 80 mM NaCl, 35 mM KCl, 5 mM MgCl2, 37 C; conditions: chain copies: 2; label: 5' 6-FAM
Protocol: as §1, §2

Row | Binder | binding result [2] | also measured
1 | B1 | – | binding result [1]: binds
2 | B2 | binds | –
3 | B3 | binds | –
4 | B4 | binds | –
5 | B5 | binds | –
6 | B6 | – | binding result [3]: binds
7 | B7 | binds | –
8 | B8 | binds | –
9 | B9 | binds | –
10 | B10 | – | binding result [4]: binds

— patent US20240271152A1, “ENHANCING NITROGEN FIXATION WITH FUN” (Aarhus Universitet, published 2024)
